Changes are numbered by the printed parent chain. One block for each binder: values may come before it.
Assays:
[1] = biological target: T1, mouse LAG-3 expressed on cells (mouse, UniProt Q61790 24-521); assay: flow cytometry on HEK cells expressing mouse LAG-3
T1 construct: also called mLAG-3; murine LAG-3 HEK
T1 sequence: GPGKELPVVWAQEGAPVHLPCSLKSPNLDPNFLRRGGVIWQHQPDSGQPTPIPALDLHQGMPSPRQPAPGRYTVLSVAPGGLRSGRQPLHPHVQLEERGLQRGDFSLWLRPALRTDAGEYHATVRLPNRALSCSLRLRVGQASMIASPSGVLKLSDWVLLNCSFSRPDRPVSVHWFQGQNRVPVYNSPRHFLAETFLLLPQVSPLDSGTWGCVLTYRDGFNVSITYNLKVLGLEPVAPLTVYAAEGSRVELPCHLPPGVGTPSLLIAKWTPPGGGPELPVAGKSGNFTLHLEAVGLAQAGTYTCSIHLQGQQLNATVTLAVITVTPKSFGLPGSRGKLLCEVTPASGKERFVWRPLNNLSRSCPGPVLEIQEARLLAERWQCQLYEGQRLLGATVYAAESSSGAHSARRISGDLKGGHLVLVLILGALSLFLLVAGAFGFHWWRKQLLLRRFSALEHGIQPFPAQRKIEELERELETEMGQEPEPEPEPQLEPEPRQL
Procedure: HEK cells expressing mLAG-3 grown in DMEM (Life Technologies, 61965-026) containing 10% FBS (Life Technologies, 10270-1-6), 100 μg/ml Hygromycin B (Melford Laboratories Ltd, Z2475), 15 μg/ml Blasticidin (Melford Laboratories Ltd, B1105) and 1 μg/ml Doxycyclin (Sigma, D9891) were detached from tissue culture flasks using cell dissociation buffer (Life Technologies, 13151-014). Cells were collected by centrifuged at 1500 rpm for 3 min at 4° C. to pellet the cells and then resuspended in 1×DPBS then seeded in V-bottom 96-well plates (Costar, 3897) at 1.2×10⁵ cells/well in 30 μl. A 1:1 volume of a dilution series of the mAb² (or control mAb) was added and incubated with the cells for 1 h at 4° C. The plates were washed and secondary antibody (Anti-human Fc-488, Jackson ImmunoResearch, 109-546-098) was diluted 1:1000 in PBS and 60 μl was added to the cells for 30 min at 4° C. (plates were kept in the dark). The plates were then washed and the cells resuspended in 60 μl PBS containing 1 μg/ml DAPI (Biotium, 40043). The plates were read using Canto II flow cytometer (BD Bioscience). Dead cells were excluded and the fluorescence in the FITC channel (488 nm/530/30) was measured. The data was fitted using log (agonist) vs response in GraphPad Prism Software.

[2] = biological target: T2, human FcγRI (R&D Systems, 1257-FC) (human, UniProt P12314 16-288); assay: SPR, Biacore T200; FcγR immobilised, 200 µg/ml injected
T2 construct: Bought recombinant protein
T2 sequence (P12314 16-288 limits assumed): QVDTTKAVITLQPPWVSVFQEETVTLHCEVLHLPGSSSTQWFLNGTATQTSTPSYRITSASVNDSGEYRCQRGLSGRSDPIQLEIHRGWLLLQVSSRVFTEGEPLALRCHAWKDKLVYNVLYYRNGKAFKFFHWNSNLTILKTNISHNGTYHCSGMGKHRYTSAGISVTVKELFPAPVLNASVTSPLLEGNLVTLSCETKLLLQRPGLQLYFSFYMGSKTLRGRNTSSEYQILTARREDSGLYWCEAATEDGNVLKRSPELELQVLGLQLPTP
Procedure: (§1) The introduction of the LALA mutation in the CH2 domain of human IgG1 is known to reduce Fc γ receptor binding (Bruhns, P., et al. (2009); and Xu, D. et al. (2000)). […] The human FcγR binding assay was performed on a Biacore T200 instrument (GE Healthcare) using the Fcabs in the mock mAb² format. […] For each immobilized chip a flow cell was left blank for background subtraction. FcγR were immobilized using a concentration of 5 μg/ml in sodium acetate pH5 (ForteBio, 18-1069) and injected at a flow rate of 10 μl/min in 15 second cycles until the required immobilization level was reached.
(§2) The flow cells were regenerated by injecting 10 mM sodium hydroxide (VWR, 28244.262) at a flow rate of 100 μl/min for 30 seconds. The data analysis was performed with BiaEvaluation software version 3.2 RC1 by double referencing against the blank flow cell (without immobilized FcγR) and subtracting a buffer cycle from test mAb².

[3] = biological target: T3, human FcγRIIIa (R&D Systems, 4325-FC) (human, UniProt P08637 17-208); assay: as above
T3 construct: Bought recombinant protein
T3 sequence (P08637 17-208 limits assumed): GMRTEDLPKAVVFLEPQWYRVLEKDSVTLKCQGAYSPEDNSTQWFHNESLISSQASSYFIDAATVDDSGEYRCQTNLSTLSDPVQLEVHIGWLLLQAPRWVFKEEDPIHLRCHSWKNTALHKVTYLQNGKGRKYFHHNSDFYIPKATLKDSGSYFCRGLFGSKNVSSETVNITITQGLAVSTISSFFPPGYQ
Procedure: as §1, §2

[4] = biological target: T4, human FcγRIIa (R&D Systems, 1330-CD) (human, UniProt P12318 36-218, limits assumed); assay: SPR, Biacore T200; FcγR immobilised, 500 µg/ml injected
T4 construct: Bought recombinant protein
T4 sequence (looked up): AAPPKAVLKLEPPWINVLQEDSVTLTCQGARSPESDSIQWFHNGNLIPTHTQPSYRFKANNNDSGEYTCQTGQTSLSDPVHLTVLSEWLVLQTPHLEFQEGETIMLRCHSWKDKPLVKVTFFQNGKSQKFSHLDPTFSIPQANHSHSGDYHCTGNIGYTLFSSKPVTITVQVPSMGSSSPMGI
Procedure: as §1, §2

[5] = biological target: T5, human FcγRIIb/c (R&D Systems, 1875-CD) (human, UniProt P31994 46-217); assay: as above
T5 construct: Bought recombinant protein
T5 sequence (looked up): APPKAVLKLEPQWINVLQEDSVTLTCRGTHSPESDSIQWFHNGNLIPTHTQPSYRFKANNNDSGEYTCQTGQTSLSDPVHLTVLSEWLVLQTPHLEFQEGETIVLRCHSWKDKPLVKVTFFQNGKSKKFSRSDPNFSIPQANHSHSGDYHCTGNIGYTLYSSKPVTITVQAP
Procedure: as §1, §2

[6] = biological target: T6, cynomolgus LAG-3 expressed on cells (cynomolgus monkey, UniProt P18627 24-525 (human entry)); assay: flow cytometry on DO11.10 cells expressing cynomolgus LAG-3
T6 construct: also called cLAG-3; cyno LAG-3
T6 chain: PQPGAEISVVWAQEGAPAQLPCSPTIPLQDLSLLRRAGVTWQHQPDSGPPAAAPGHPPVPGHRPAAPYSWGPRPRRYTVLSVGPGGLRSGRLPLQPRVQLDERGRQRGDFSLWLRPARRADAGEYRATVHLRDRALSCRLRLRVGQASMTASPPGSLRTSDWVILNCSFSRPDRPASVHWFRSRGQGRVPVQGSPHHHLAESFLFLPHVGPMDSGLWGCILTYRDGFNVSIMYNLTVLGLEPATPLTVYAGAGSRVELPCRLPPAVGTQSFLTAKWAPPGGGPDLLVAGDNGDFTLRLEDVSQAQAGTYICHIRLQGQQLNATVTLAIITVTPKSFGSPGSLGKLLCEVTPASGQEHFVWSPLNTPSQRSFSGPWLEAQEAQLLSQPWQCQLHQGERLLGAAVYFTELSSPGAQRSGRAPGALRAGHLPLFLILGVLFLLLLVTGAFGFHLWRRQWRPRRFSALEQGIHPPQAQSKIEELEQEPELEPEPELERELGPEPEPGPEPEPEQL
Procedure: DO11.10:LAG-3 cell suspensions were prepared in PBS+2% BSA (Sigma, A7906) and seeded at […] with 50 μl/well in V-bottomed 96-well plates (Costar, 3897). […] The plates were washed and 100 μl/well of secondary antibody (anti-human Fc-488 antibody, Jackson ImmunoResearch, 109-546-098) diluted 1:1000 in PBS+2% BSA was then added and incubated for 30 mins at 4° C. in the dark. The plates were washed and resuspended in 100 μl of PBS containing DAPI (Biotium, 40043) at […]. The plates were read using Canto II flow cytometer (BD Bioscience). The dead cells were excluded and the fluorescence in the FITC channel (488 nm/530/30) was measured. The data was fit using log (agonist) vs response in GraphPad Prism Software.

[7] = biological target: T1, mouse LAG-3 expressed on cells; assay: flow cytometry on HEK cells expressing murine LAG-3
Procedure: (§3) The affinity of the mAb² (all containing the LALA mutations) binding to cell expressed murine LAG-3 or murine PD-L1 was determined using flow cytometry. HEK cells expressing murine LAG-3 or murine PD-L1 grown in DMEM (Life Technologies, 61965-026) containing 10% FBS (Life Technologies, 10270-1-6), 100 μg/ml Hygromycin B (Melford Laboratories Ltd, Z2475), 15 μg/ml Blasticidin (Melford Laboratories Ltd, B1105) and 1 μg/ml Doxycyclin (Sigma, D9891) were detached from tissue culture flasks using cell dissociation buffer (Life Technologies, 13151-014) and seeded in V-bottom 96-well plates (Costar, 3897) at 2×10⁵ cells/well. The plates were centrifuged at 1500 rpm for 3 min at 4° C. to pellet the cells. A dilution series of the mAb² (or control mAb) were incubated with the cells in a 60 μl volume for 1 h at 4° C. The plates were washed and secondary antibody (Anti-human Fc-488, Jackson ImmunoResearch, 109-546-098 for mAb² or Anti-Rat IgG (H+L), Alexa Fluor 488, ThermoFisher, A-11006 for anti-LAG-3 control, C9B7W) was diluted 1:1000 in PBS and 50 μl was added to the cells for 30 min at 4° C. (plates were kept in the dark). The plates were washed then cells were resuspended in 50 μl FACS Cell Fix (BD Bioscience, 340181) for 15 minutes, then washed and resuspended in 100 μl PBS containing 1 μg/ml DAPI (Biotium, 40043). The plates were read using Canto II flow cytometer (BD Bioscience). Dead cells were excluded and the fluorescence in the FITC channel (488 nm/530/30) was measured. The data was fit using log (agonist) vs response in GraphPad Prism Software. The plates were read on a BD FACSCanto II cytometer (BD Biosciences) and the data analysed using FlowJo.

[8] = biological target: T7, murine PD-L1 expressed on cells (mouse, UniProt Q9EP73 19-290); assay: flow cytometry on HEK cells expressing murine PD-L1
T7 construct: also called murine PD-L1 HEK
T7 sequence (Q9EP73 19-290 limits assumed): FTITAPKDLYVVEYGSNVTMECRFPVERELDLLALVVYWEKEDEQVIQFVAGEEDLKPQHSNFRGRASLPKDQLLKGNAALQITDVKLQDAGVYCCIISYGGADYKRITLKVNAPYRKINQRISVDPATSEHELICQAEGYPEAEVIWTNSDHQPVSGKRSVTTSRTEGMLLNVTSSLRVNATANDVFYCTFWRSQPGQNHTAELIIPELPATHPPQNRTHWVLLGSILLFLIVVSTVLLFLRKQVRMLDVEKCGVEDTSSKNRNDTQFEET
Procedure: as §3, with “The plates were washed then cells were resuspended in 50 μl FACS Cell Fix (BD Bioscience, 340181) for 15 minutes, then washed and resuspended in 100 μl PBS containing 1 μg/ml DAPI (Biotium, 40043).” left out, “The data was fit using log (agonist) vs response in GraphPad Prism Software.” left out

B1: anti-human LAG-3/FITC mock mAb2 FS18-7-9/4420 comprising LALA mutation (bispecific antibody, human IgG1, kappa, L234A L235A)
heavy: EVKLDETGGGLVQPGRPMKLSCVASGFTFSDYWMNWVRQSPEKGLEWVAQIRNKPYNYETYYSDSVKGRFTISRDDSKSSVYLQMNNLRVEDMGIYYCTGSYYGMDYWGQGTSVTVSSASTKGPSVFPLAPSSKSTSGGTAALGCLVKDYFPEPVTVSWNSGALTSGVHTFPAVLQSSGLYSLSSVVTVPSSSLGTQTYICNVNHKPSNTKVDKKVEPKSCDKTHTCPPCPAPEAAGGPSVFLFPPKPKDTLMISRTPEVTCVVVDVSHEDPEVKFNWYVDGVEVHNAKTKPREEQYNSTYRVVSVLTVLHQDWLNGKEYKCKVSNKALPAPIEKTISKAKGQPREPQVYTLPPSWDEPWGEDVSLTCLVKGFYPSDIAVEWESNGQPENNYKTTPPVLDSDGSFFLYSKLTVPYDRWVWPDEFSCSVMHEALHNHYTQKSLSLSPG
light: DVVMTQTPLSLPVSLGDQASISCRSSQSLVHSNGNTYLRWYLQKPGQSPKVLIYKVSNRFSGVPDRFSGSGSGTDFTLKISRVEAEDLGVYFCSQSTHVPWTFGGGTKLEIKRTVAAPSVFIFPPSDEQLKSGTASVVCLLNNFYPREAKVQWKVDNALQSGNSQESVTEQDSKDSTYSLSSTLTLSKADYEKHKVYACEVTHQGLSSPVTKSFNRGEC
notes: Human IgG1 format; also called FS18-7-9/4420LALA; FS18-7-09/4420LALA
- EC50 [1]: 19 nM
- binding response at end of association (RU) [2]: 1.4 RU
- binding response at end of association (RU) [3]: 6.6 RU
- binding response at end of association (RU) [4]: -9.8 RU
- binding response at end of association (RU) [5]: -8.5 RU
- EC50 [6]: 0.6 nM

B3: anti-mouse LAG-3/PD-L1 mAb2 FS18-7-108-29/S1 with LALA mutation (bispecific antibody)
heavy: not shown
light: DIQMTQSPSSLSASVGDRVTITCRASQDVSTAVAWYQQKPGKAPKLLIYSASFLYSGVPSRFSGSGSGTDFTLTISSLQPEDFATYYCQQYLFTPPTFGQGTKVEIKRTVAAPSVFIFPPSDEQLKSGTASVVCLLNNFYPREAKVQWKVDNALQSGNSQESVTEQDSKDSTYSLSSTLTLSKADYEKHKVYACEVTHQGLSSPVTKSFNRGEC
notes: also called FS18-29/S1
- EC50 [7]: 2.27 nM
- EC50 [8]: 11.9 nM

The next lines start with the values.

- binding response at end of association (RU) [2]: -0.9 RU
- binding response at end of association (RU) [3]: 0.7 RU
- binding response at end of association (RU) [4]: -10 RU
- binding response at end of association (RU) [5]: -8.5 RU
- EC50 [6]: 0.5 nM
B2: anti-human LAG-3/FITC mock mAb2 FS18-7-62/4420 comprising LALA mutation (bispecific antibody, human IgG1, kappa, L234A L235A)
heavy: B1 heavy with Q387I, N390W
light: B1 light
notes: also called FS18-7-62/4420LALA; FS18-7-62 in mock mAb2 format

- binding result [1]: no binding
B4: control anti-human LAG-3 mAb 25F7 (antibody, human IgG1, kappa, L234A L235A, V domains shown)
VH: QVQLQQWGAGLLKPSETLSLTCAVYGGSFSDYYWNWIRQPPGKGLEWIGEINHRGSTNSNPSLKSRVTLSLDTSKNQFSLKLRSVTAADTAVYYCAFGYSDYEYNWFDPWGQGTLVTVSS
VL: EIVLTQSPATLSLSPGERATLSCRASQSISSYLAWYQQKPGQAPRLLIYDASNRATGIPARFSGSGSGTDFTLTISSLEPEDFAVYYCQQRSNWPLTFGQGTNLEIKR
notes: also called benchmark anti-human LAG-3 mAb

— patent US20220185894A1 (F STAR THERAPEUTICS, published 2022)
